# Data from patent US20200087373A1 (UNIVERSITY OF COPENHAGEN, published 2020).
# Ends that are not written are not given here. * marks the point of attachment. C16 diacid = O=C(O)CCCCCCCCCCCCCCC(=O)*
# T1: human GIP receptor (human, UniProt P48546 22-466)
# T1 sequence (looked up): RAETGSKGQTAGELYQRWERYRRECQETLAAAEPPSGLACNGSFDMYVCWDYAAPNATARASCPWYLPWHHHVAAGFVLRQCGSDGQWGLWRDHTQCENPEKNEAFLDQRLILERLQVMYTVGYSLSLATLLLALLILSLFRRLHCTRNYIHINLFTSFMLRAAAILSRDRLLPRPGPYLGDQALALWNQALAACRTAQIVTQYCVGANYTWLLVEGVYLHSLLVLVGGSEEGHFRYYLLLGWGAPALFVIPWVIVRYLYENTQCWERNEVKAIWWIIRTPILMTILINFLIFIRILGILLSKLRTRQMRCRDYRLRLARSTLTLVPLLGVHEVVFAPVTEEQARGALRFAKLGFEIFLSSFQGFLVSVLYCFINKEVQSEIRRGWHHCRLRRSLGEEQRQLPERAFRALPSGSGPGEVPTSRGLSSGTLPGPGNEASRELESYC
# Biological target: T1, human GIP receptor
# Experiment: cell-based or functional assay
Binder,"cAMP agonism, EC50 (log)","cAMP agonism, Emax","cAMP agonism, nM (EC50)","cAMP antagonism, log (IC50)","cAMP antagonism, nM (IC50)"
EGTFISDYSIAMDKIHK(C16 diacid)QDFVNWLLAQK-NH2 (N-terminus assumed; SMILES CC[C@H](C)[C@H](NC(=O)[C@H](CO)NC(=O)[C@H](Cc1ccc(O)cc1)NC(=O)[C@H](CC(=O)O)NC(=O)[C@H](CO)NC(=O)[C@@H](NC(=O)[C@H](Cc1ccccc1)NC(=O)[C@@H](NC(=O)CNC(=O)[C@@H](N)CCC(=O)O)[C@@H](C)O)[C@@H](C)CC)C(=O)N[C@@H](C)C(=O)N[C@@H](CCSC)C(=O)N[C@@H](CC(=O)O)C(=O)N[C@@H](CCCCN)C(=O)N[C@H](C(=O)N[C@@H](Cc1c[nH]cn1)C(=O)N[C@@H](CCCCNC(=O)CCCCCCCCCCCCCCC(=O)O)C(=O)N[C@@H](CCC(N)=O)C(=O)N[C@@H](CC(=O)O)C(=O)N[C@@H](Cc1ccccc1)C(=O)N[C@H](C(=O)N[C@@H](CC(N)=O)C(=O)N[C@@H](Cc1c[nH]c2ccccc12)C(=O)N[C@@H](CC(C)C)C(=O)N[C@@H](CC(C)C)C(=O)N[C@@H](C)C(=O)N[C@@H](CCC(N)=O)C(=O)N[C@@H](CCCCN)C(N)=O)C(C)C)[C@@H](C)CC) [AT308 [hGIP(3-30)NH2[Q19K]-C16diacid/19]],-7.5 log M,7.9%,34 nM,-6.9 log M,132 nM
EGTFISDYSIAMDK(C16 diacid)IHQQDFVNWLLAQK-NH2 [AT370 [hGIP(3-30)NH2-C16diacid/16]],–,–,–,-7.6 log M,24.9 nM
EGTFISDYSIK(C16 diacid)MDKIHQQDFVNWLLAQK-NH2 (N-terminus assumed; SMILES CC[C@H](C)[C@H](NC(=O)[C@H](CCCCN)NC(=O)[C@H](CC(=O)O)NC(=O)[C@H](CCSC)NC(=O)[C@H](CCCCNC(=O)CCCCCCCCCCCCCCC(=O)O)NC(=O)[C@@H](NC(=O)[C@H](CO)NC(=O)[C@H](Cc1ccc(O)cc1)NC(=O)[C@H](CC(=O)O)NC(=O)[C@H](CO)NC(=O)[C@@H](NC(=O)[C@H](Cc1ccccc1)NC(=O)[C@@H](NC(=O)CNC(=O)[C@@H](N)CCC(=O)O)[C@@H](C)O)[C@@H](C)CC)[C@@H](C)CC)C(=O)N[C@@H](Cc1c[nH]cn1)C(=O)N[C@@H](CCC(N)=O)C(=O)N[C@@H](CCC(N)=O)C(=O)N[C@@H](CC(=O)O)C(=O)N[C@@H](Cc1ccccc1)C(=O)N[C@H](C(=O)N[C@@H](CC(N)=O)C(=O)N[C@@H](Cc1c[nH]c2ccccc12)C(=O)N[C@@H](CC(C)C)C(=O)N[C@@H](CC(C)C)C(=O)N[C@@H](C)C(=O)N[C@@H](CCC(N)=O)C(=O)N[C@@H](CCCCN)C(N)=O)C(C)C) [AT304 [hGIP(3-30)NH2[A13K]-C16diacid/13]],–,–,–,-6.7 log M,199 nM
EGTFISDYSK(C16 diacid)AMDKIHQQDFVNWLLAQK-NH2 (N-terminus assumed; SMILES CC[C@H](C)[C@H](NC(=O)[C@H](CCCCN)NC(=O)[C@H](CC(=O)O)NC(=O)[C@H](CCSC)NC(=O)[C@H](C)NC(=O)[C@H](CCCCNC(=O)CCCCCCCCCCCCCCC(=O)O)NC(=O)[C@H](CO)NC(=O)[C@H](Cc1ccc(O)cc1)NC(=O)[C@H](CC(=O)O)NC(=O)[C@H](CO)NC(=O)[C@@H](NC(=O)[C@H](Cc1ccccc1)NC(=O)[C@@H](NC(=O)CNC(=O)[C@@H](N)CCC(=O)O)[C@@H](C)O)[C@@H](C)CC)C(=O)N[C@@H](Cc1c[nH]cn1)C(=O)N[C@@H](CCC(N)=O)C(=O)N[C@@H](CCC(N)=O)C(=O)N[C@@H](CC(=O)O)C(=O)N[C@@H](Cc1ccccc1)C(=O)N[C@H](C(=O)N[C@@H](CC(N)=O)C(=O)N[C@@H](Cc1c[nH]c2ccccc12)C(=O)N[C@@H](CC(C)C)C(=O)N[C@@H](CC(C)C)C(=O)N[C@@H](C)C(=O)N[C@@H](CCC(N)=O)C(=O)N[C@@H](CCCCN)C(N)=O)C(C)C) [AT303 [hGIP(3-30)NH2[I12K]-C16diacid/12]],-7.6 log M,24.2%,28 nM,-7 log M,90 nM
EGTFISDYSIAMK(C16 diacid)KIHQQDFVNWLLAQK-NH2 (N-terminus assumed; SMILES CC[C@H](C)[C@H](NC(=O)[C@H](CO)NC(=O)[C@H](Cc1ccc(O)cc1)NC(=O)[C@H](CC(=O)O)NC(=O)[C@H](CO)NC(=O)[C@@H](NC(=O)[C@H](Cc1ccccc1)NC(=O)[C@@H](NC(=O)CNC(=O)[C@@H](N)CCC(=O)O)[C@@H](C)O)[C@@H](C)CC)C(=O)N[C@@H](C)C(=O)N[C@@H](CCSC)C(=O)N[C@@H](CCCCNC(=O)CCCCCCCCCCCCCCC(=O)O)C(=O)N[C@@H](CCCCN)C(=O)N[C@H](C(=O)N[C@@H](Cc1c[nH]cn1)C(=O)N[C@@H](CCC(N)=O)C(=O)N[C@@H](CCC(N)=O)C(=O)N[C@@H](CC(=O)O)C(=O)N[C@@H](Cc1ccccc1)C(=O)N[C@H](C(=O)N[C@@H](CC(N)=O)C(=O)N[C@@H](Cc1c[nH]c2ccccc12)C(=O)N[C@@H](CC(C)C)C(=O)N[C@@H](CC(C)C)C(=O)N[C@@H](C)C(=O)N[C@@H](CCC(N)=O)C(=O)N[C@@H](CCCCN)C(N)=O)C(C)C)[C@@H](C)CC) [AT306 [hGIP(3-30)NH2[D15K]-C16diacid/15]],-7.9 log M,6.6%,13 nM,-7.3 log M,53 nM
EGTFISDYSIAMDKK(C16 diacid)HQQDFVNWLLAQK-NH2 (N-terminus assumed; SMILES CC[C@H](C)[C@H](NC(=O)[C@H](CO)NC(=O)[C@H](Cc1ccc(O)cc1)NC(=O)[C@H](CC(=O)O)NC(=O)[C@H](CO)NC(=O)[C@@H](NC(=O)[C@H](Cc1ccccc1)NC(=O)[C@@H](NC(=O)CNC(=O)[C@@H](N)CCC(=O)O)[C@@H](C)O)[C@@H](C)CC)C(=O)N[C@@H](C)C(=O)N[C@@H](CCSC)C(=O)N[C@@H](CC(=O)O)C(=O)N[C@@H](CCCCN)C(=O)N[C@@H](CCCCNC(=O)CCCCCCCCCCCCCCC(=O)O)C(=O)N[C@@H](Cc1c[nH]cn1)C(=O)N[C@@H](CCC(N)=O)C(=O)N[C@@H](CCC(N)=O)C(=O)N[C@@H](CC(=O)O)C(=O)N[C@@H](Cc1ccccc1)C(=O)N[C@H](C(=O)N[C@@H](CC(N)=O)C(=O)N[C@@H](Cc1c[nH]c2ccccc12)C(=O)N[C@@H](CC(C)C)C(=O)N[C@@H](CC(C)C)C(=O)N[C@@H](C)C(=O)N[C@@H](CCC(N)=O)C(=O)N[C@@H](CCCCN)C(N)=O)C(C)C) [AT307 [hGIP(3-30)NH2[I17K]-C16diacid/17]],-7.9 log M,4.9%,14 nM,-7 log M,93 nM
EGTFISDYSIAK(C16 diacid)DKIHQQDFVNWLLAQK-NH2 (N-terminus assumed; SMILES CC[C@H](C)[C@H](NC(=O)[C@H](CO)NC(=O)[C@H](Cc1ccc(O)cc1)NC(=O)[C@H](CC(=O)O)NC(=O)[C@H](CO)NC(=O)[C@@H](NC(=O)[C@H](Cc1ccccc1)NC(=O)[C@@H](NC(=O)CNC(=O)[C@@H](N)CCC(=O)O)[C@@H](C)O)[C@@H](C)CC)C(=O)N[C@@H](C)C(=O)N[C@@H](CCCCNC(=O)CCCCCCCCCCCCCCC(=O)O)C(=O)N[C@@H](CC(=O)O)C(=O)N[C@@H](CCCCN)C(=O)N[C@H](C(=O)N[C@@H](Cc1c[nH]cn1)C(=O)N[C@@H](CCC(N)=O)C(=O)N[C@@H](CCC(N)=O)C(=O)N[C@@H](CC(=O)O)C(=O)N[C@@H](Cc1ccccc1)C(=O)N[C@H](C(=O)N[C@@H](CC(N)=O)C(=O)N[C@@H](Cc1c[nH]c2ccccc12)C(=O)N[C@@H](CC(C)C)C(=O)N[C@@H](CC(C)C)C(=O)N[C@@H](C)C(=O)N[C@@H](CCC(N)=O)C(=O)N[C@@H](CCCCN)C(N)=O)C(C)C)[C@@H](C)CC) [AT305 [hGIP(3-30)NH2[M14K]-C16diacid/14]],-8.1 log M,12%,8 nM,-6.8 log M,166 nM
EGTFISDYSIAMDKIHQK(C16 diacid)DFVNWLLAQK-NH2 (N-terminus assumed; SMILES CC[C@H](C)[C@H](NC(=O)[C@H](CO)NC(=O)[C@H](Cc1ccc(O)cc1)NC(=O)[C@H](CC(=O)O)NC(=O)[C@H](CO)NC(=O)[C@@H](NC(=O)[C@H](Cc1ccccc1)NC(=O)[C@@H](NC(=O)CNC(=O)[C@@H](N)CCC(=O)O)[C@@H](C)O)[C@@H](C)CC)C(=O)N[C@@H](C)C(=O)N[C@@H](CCSC)C(=O)N[C@@H](CC(=O)O)C(=O)N[C@@H](CCCCN)C(=O)N[C@H](C(=O)N[C@@H](Cc1c[nH]cn1)C(=O)N[C@@H](CCC(N)=O)C(=O)N[C@@H](CCCCNC(=O)CCCCCCCCCCCCCCC(=O)O)C(=O)N[C@@H](CC(=O)O)C(=O)N[C@@H](Cc1ccccc1)C(=O)N[C@H](C(=O)N[C@@H](CC(N)=O)C(=O)N[C@@H](Cc1c[nH]c2ccccc12)C(=O)N[C@@H](CC(C)C)C(=O)N[C@@H](CC(C)C)C(=O)N[C@@H](C)C(=O)N[C@@H](CCC(N)=O)C(=O)N[C@@H](CCCCN)C(N)=O)C(C)C)[C@@H](C)CC) [AT309 [hGIP(3-30)NH2[Q20K]-C16diacid/20]],–,–,–,-7.4 log M,36 nM
